Where two headings read alike, the source gives them in different places.
Columns and labels:
[1] = biological target: T1, hPRLR on stably transfected BaF/3 cells (human, UniProt P16471 25-622); experiment: cell-based or functional assay
T1 sequence (looked up): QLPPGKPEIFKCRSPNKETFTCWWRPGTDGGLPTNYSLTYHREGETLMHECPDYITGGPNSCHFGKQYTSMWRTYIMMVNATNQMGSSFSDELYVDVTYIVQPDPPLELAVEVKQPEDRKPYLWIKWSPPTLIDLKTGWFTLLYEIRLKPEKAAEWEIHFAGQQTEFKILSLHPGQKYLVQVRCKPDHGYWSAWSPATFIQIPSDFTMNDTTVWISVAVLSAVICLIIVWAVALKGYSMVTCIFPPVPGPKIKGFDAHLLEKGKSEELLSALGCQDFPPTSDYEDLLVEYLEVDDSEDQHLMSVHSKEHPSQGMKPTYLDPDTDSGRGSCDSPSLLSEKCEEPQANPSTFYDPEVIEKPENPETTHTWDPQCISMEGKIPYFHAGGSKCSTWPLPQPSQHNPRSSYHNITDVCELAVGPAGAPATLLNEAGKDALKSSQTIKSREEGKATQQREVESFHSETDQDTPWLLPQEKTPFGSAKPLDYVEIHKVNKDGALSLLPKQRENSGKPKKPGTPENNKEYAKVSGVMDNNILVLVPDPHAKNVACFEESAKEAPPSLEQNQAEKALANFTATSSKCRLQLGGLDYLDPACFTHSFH

[2] = biological target: T1, hPRLR on stably transfected BaF/3 cells; experiment: cell-based or functional assay; remark: listed apart in the source
[3] = biological target: T2, soluble form of the PRL receptor (UniProt P16471 25-234, limits assumed); experiment: SPR (Biacore 3000), soluble PRL receptor amine-coupled to CM5 chip, prolactin molecule injected at 500 nM
T2 construct: extracellular domain; It gives no residues, tag or species; also called prolactin receptor; immobilized receptor
T2 sequence (looked up): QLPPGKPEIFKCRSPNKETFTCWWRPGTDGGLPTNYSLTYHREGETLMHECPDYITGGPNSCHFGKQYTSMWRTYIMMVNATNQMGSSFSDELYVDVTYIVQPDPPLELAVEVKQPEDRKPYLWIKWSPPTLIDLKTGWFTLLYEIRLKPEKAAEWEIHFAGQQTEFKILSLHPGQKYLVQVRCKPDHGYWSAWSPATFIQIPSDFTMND
Description: The soluble form of the PRL receptor (25 μg/ml in 10 mM sodium acetate, pH 3.0) was injected into a Biacore 3000 instrument at a flow rate of 5 μl/min and coupled to a CM5 sensor chip by amine coupling chemistry. […] Data evaluation was performed in BiaEvaluation 4.1. Regeneration was accomplished with 4.5 M MgCl₂ between runs.
Using the assay as described in Example 8, the binding of N-terminally pegylated versions of the prolactin antagonist PRL(12-199) Q12S G129R to the prolactin receptor was determined.

B1: PRL wildtype (ligand)
chain: LPICPGGAARCQVTLRDLFDRAVVLSHYIHNLSSEMFSEFDKRYTHGRGFITKAINSCHTSSLATPEDKEQAQQMNQKDFLSLIVSILRSWNEPLYHLVTEVRGMQEAPEAILSKAVEIEEQTKRLLEGMELIVSQVHPETKENEIYPVWSGLPSLQMADEESRLSAYYNLLHCLRRDSHKIDNYLKLLKCRIIHNNNC
notes: also called wtPRL; human prolactin
- EC50, proliferation (AlamarBlue) of BaF/3 cells stably transfected with hPRLR [1]: 0.15 nM
- EC50, proliferation (AlamarBlue) of BaF/3 cells stably transfected with hPRLR [2]: 0.15 nM
- Kd [3]: 32 nM

B2: PRL S61A G129R (ligand)
chain: LPICPGGAARCQVTLRDLFDRAVVLSHYIHNLSSEMFSEFDKRYTHGRGFITKAINSCHTASLATPEDKEQAQQMNQKDFLSLIVSILRSWNEPLYHLVTEVRGMQEAPEAILSKAVEIEEQTKRLLERMELIVSQVHPETKENEIYPVWSGLPSLQMADEESRLSAYYNLLHCLRRDSHKIDNYLKLLKCRIIHNNNC
- EC50 of PRL in the presence of 1 µM PRL S61A G129R, proliferation of BaF/3 cells stably transfected with hPRLR [2]: 116 nM

B3: N^alpha1-(3-(20 kDa-mPEGyl)propyl)PRL S61 G129R ("PRL S61A G129R PEG20k") (ligand)
chain: LPICPGGAARCQVTLRDLFDRAVVLSHYIHNLSSEMFSEFDKRYTHGRGFITKAINSCHTASLATPEDKEQAQQMNQKDFLSLIVSILRSWNEPLYHLVTEVRGMQEAPEAILSKAVEIEEQTKRLLERMELIVSQVHPETKENEIYPVWSGLPSLQMADEESRLSAYYNLLHCLRRDSHKIDNYLKLLKCRIIHNNNC
modifications: N-terminal alpha-amino group (N^alpha1) alkylated with 3-(20 kDa mPEGyl)propyl by reductive amination
- EC50 of PRL in the presence of 1 µM PRL S61A G129R PEG20k, proliferation of BaF/3 cells stably transfected with hPRLR [2]: 4.6 nM
- Kd [3]: 71 nM

B4: N^alpha,13((4-(2-Methyl-4-(10 kDa mPEGyloxy)butanoylamino)butoxy)imino)acetyl G129R-PRL(13-199) (E2) (ligand)
chain: VTLRDLFDRAVVLSHYIHNLSSEMFSEFDKRYTHGRGFITKAINSCHTSSLATPEDKEQAQQMNQKDFLSLIVSILRSWNEPLYHLVTEVRGMQEAPEAILSKAVEIEEQTKRLLERMELIVSQVHPETKENEIYPVWSGLPSLQMADEESRLSAYYNLLHCLRRDSHKIDNYLKLLKCRIIHNNNC
modifications: alpha-amino group of residue 13 carries ((4-(2-methyl-4-(10 kDa mPEGyloxy)butanoylamino)butoxy)imino)acetyl (oxime formed on the periodate-oxidised N-terminal serine of N^alpha,13-seryl G129R-PRL(13-199))
notes: also called N-terminally pegylated PRL(12-199) Q12S G129R (10 kDa PEG)
- Kd [3]: 55 nM

B5: N^alpha,13((4-(3-(5 kDa mPEGyloxy)propionylamino)butoxy)imino)acetyl G129R-PRL(13-199) (E4) (ligand)
chain: VTLRDLFDRAVVLSHYIHNLSSEMFSEFDKRYTHGRGFITKAINSCHTSSLATPEDKEQAQQMNQKDFLSLIVSILRSWNEPLYHLVTEVRGMQEAPEAILSKAVEIEEQTKRLLERMELIVSQVHPETKENEIYPVWSGLPSLQMADEESRLSAYYNLLHCLRRDSHKIDNYLKLLKCRIIHNNNC
modifications: alpha-amino group of residue 13 carries ((4-(3-(5 kDa mPEGyloxy)propionylamino)butoxy)imino)acetyl (oxime formed on the periodate-oxidised N-terminal serine of N^alpha,13-seryl G129R-PRL(13-199))
notes: also called N-terminally pegylated PRL(12-199) Q12S G129R (5 kDa PEG)
- Kd [3]: 42 nM

B6: N^alpha,13((4-(4-(20 kDa mPEGyloxy)butanoylamino)butoxy)imino)acetyl G129R-PRL(13-199) (E3) (ligand)
chain: VTLRDLFDRAVVLSHYIHNLSSEMFSEFDKRYTHGRGFITKAINSCHTSSLATPEDKEQAQQMNQKDFLSLIVSILRSWNEPLYHLVTEVRGMQEAPEAILSKAVEIEEQTKRLLERMELIVSQVHPETKENEIYPVWSGLPSLQMADEESRLSAYYNLLHCLRRDSHKIDNYLKLLKCRIIHNNNC
modifications: alpha-amino group of residue 13 carries ((4-(4-(20 kDa mPEGyloxy)butanoylamino)butoxy)imino)acetyl (oxime formed on the periodate-oxidised N-terminal serine of N^alpha,13-seryl G129R-PRL(13-199))
notes: also called N-terminally pegylated PRL(12-199) Q12S G129R (20 kDa PEG)
- Kd [3]: 70 nM

B7: Ser PRL S33A Q73L G129R K190R (ligand)
chain: SLPICPGGAARCQVTLRDLFDRAVVLSHYIHNLASEMFSEFDKRYTHGRGFITKAINSCHTSSLATPEDKEQALQMNQKDFLSLIVSILRSWNEPLYHLVTEVRGMQEAPEAILSKAVEIEEQTKRLLERMELIVSQVHPETKENEIYPVWSGLPSLQMADEESRLSAYYNLLHCLRRDSHKIDNYLKLLRCRIIHNNNC
- EC50 of PRL in the presence of 1 µM Ser PRL S33A Q73L G129R K190R, proliferation of BaF/3 cells stably transfected with hPRLR [1]: 531 nM

B8: N^alpha1-(3-(20 kDa-mPEGyl)propyl) Ser PRL S33A Q73L G129R K190R (ligand)
chain: SLPICPGGAARCQVTLRDLFDRAVVLSHYIHNLASEMFSEFDKRYTHGRGFITKAINSCHTSSLATPEDKEQALQMNQKDFLSLIVSILRSWNEPLYHLVTEVRGMQEAPEAILSKAVEIEEQTKRLLERMELIVSQVHPETKENEIYPVWSGLPSLQMADEESRLSAYYNLLHCLRRDSHKIDNYLKLLRCRIIHNNNC
modifications: N-terminal alpha-amino group (N^alpha1, of the added serine) alkylated with 3-(20 kDa mPEGyl)propyl by reductive amination
- EC50 of PRL in the presence of 1 µM Ser PRL S33A Q73L G129R K190R PEG20k, proliferation of BaF/3 cells stably transfected with hPRLR [1]: 19 nM

B9: PRL(12-199) Q12S G129R (ligand)
chain: SVTLRDLFDRAVVLSHYIHNLSSEMFSEFDKRYTHGRGFITKAINSCHTSSLATPEDKEQAQQMNQKDFLSLIVSILRSWNEPLYHLVTEVRGMQEAPEAILSKAVEIEEQTKRLLERMELIVSQVHPETKENEIYPVWSGLPSLQMADEESRLSAYYNLLHCLRRDSHKIDNYLKLLKCRIIHNNNC
- EC50 of PRL in the presence of 1 µM PRL(12-199) Q12S G129R, proliferation of BaF/3 cells stably transfected with hPRLR [1]: 40 nM
